For assay [1], the target named is Large tumor suppressor 1 (LATS1), endogenous (UniProt O95835). The experiment in a line: Strep AP-MS. Conditions: three biological replicates; parent: est. 0.0; read off a plot.
Assay [2] addresses nonreceptor tyrosine phosphatase 14 (PTPN14), endogenous (UniProt Q15678). The experiment in a line: Strep AP-MS. The note with it: three biological replicates; parent: est. 0.0; read off a plot.
In assay [3] the target is Large tumor suppressor 1 (LATS1), endogenous (UniProt O95835). The experiment in a line: streptavidin affinity purification and MS (MS1 intensity). Conditions: three independent biological replicates; parent: est. -0.1; read off a plot.
Assay [4] deals with nonreceptor tyrosine phosphatase 14 (PTPN14), endogenous (UniProt Q15678). Described as above. The note with it: three independent biological replicates; parent: est. -0.1; read off a plot.
The target of a further assay is TP53BP2 (UniProt Q13625). The experiment in a line: AP-MS (MS1 intensity). Conditions: parent: est. 33; read off a plot.
UniProt Q13625, sequence (Q13625 whole entry): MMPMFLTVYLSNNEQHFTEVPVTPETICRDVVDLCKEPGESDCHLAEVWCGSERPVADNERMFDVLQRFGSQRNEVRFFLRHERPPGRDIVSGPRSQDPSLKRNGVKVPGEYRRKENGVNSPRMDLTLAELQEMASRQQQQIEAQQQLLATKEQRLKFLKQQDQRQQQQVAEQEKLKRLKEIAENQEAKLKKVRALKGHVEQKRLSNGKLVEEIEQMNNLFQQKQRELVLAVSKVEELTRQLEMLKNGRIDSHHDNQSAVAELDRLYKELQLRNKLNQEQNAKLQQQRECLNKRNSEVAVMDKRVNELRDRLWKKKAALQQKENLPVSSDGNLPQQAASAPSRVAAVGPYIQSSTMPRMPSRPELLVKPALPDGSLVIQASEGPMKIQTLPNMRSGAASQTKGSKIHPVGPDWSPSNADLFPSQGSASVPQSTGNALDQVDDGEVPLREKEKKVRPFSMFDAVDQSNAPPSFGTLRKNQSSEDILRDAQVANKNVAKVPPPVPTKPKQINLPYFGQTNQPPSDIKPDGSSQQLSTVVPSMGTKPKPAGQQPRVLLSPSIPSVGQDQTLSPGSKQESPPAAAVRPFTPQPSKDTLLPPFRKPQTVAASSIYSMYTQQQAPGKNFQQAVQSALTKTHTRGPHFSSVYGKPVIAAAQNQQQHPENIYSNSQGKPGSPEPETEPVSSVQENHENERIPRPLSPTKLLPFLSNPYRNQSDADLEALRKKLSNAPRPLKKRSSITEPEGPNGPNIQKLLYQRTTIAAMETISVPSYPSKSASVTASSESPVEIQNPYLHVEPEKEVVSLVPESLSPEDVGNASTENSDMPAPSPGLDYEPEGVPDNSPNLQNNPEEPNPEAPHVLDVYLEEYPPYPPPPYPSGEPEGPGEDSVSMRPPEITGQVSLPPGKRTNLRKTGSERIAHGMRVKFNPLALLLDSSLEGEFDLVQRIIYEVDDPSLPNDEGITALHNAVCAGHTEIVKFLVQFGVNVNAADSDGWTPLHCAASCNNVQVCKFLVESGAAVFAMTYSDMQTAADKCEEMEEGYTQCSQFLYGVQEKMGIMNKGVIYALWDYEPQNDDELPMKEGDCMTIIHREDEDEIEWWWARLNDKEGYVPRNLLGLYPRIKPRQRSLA
A further assay addresses AMOTL1 (UniProt Q8IY63). The experiment in a line: AP-MS (MS1 intensity). The note with it: parent: est. 34; read off a plot.
UniProt Q8IY63, sequence (Q8IY63 whole entry): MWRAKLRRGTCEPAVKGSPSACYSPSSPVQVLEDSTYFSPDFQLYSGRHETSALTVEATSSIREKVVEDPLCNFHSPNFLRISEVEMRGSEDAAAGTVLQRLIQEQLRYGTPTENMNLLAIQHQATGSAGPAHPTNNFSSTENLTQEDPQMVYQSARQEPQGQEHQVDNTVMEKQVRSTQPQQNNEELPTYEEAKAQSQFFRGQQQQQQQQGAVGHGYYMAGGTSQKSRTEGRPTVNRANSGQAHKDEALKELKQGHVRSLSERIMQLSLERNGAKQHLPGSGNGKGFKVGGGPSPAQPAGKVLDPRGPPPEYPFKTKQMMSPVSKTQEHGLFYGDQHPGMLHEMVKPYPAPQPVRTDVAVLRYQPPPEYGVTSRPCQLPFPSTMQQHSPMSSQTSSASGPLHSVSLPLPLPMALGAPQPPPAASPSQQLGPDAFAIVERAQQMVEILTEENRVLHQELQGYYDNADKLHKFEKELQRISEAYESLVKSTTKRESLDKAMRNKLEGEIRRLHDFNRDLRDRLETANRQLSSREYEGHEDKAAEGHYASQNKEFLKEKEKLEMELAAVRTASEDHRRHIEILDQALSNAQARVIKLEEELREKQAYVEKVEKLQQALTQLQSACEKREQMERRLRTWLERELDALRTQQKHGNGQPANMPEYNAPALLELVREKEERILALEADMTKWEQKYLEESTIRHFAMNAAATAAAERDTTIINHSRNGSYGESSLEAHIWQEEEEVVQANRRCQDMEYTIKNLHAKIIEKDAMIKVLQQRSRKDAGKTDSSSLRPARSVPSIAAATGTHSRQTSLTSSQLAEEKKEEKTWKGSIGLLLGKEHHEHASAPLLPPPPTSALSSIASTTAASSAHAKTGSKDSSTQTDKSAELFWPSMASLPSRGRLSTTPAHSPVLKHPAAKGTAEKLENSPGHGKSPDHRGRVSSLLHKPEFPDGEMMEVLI
Another assay concerns the target CCDC85C (UniProt A6NKD9). The experiment in a line: AP-MS (MS1 intensity). Conditions: parent: est. 32; read off a plot.
UniProt A6NKD9, sequence (A6NKD9 whole entry): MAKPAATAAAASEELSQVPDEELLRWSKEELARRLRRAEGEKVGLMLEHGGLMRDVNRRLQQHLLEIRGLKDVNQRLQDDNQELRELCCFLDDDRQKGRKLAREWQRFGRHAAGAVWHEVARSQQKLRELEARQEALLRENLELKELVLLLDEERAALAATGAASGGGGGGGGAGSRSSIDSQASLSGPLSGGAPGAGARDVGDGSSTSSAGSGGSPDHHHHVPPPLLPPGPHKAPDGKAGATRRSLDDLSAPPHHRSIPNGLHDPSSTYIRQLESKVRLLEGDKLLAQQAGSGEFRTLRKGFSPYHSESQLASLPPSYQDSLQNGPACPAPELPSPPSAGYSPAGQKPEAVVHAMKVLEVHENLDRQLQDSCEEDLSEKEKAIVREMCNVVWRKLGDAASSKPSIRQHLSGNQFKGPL

UniProt Q15678, sequence (Q15678 whole entry): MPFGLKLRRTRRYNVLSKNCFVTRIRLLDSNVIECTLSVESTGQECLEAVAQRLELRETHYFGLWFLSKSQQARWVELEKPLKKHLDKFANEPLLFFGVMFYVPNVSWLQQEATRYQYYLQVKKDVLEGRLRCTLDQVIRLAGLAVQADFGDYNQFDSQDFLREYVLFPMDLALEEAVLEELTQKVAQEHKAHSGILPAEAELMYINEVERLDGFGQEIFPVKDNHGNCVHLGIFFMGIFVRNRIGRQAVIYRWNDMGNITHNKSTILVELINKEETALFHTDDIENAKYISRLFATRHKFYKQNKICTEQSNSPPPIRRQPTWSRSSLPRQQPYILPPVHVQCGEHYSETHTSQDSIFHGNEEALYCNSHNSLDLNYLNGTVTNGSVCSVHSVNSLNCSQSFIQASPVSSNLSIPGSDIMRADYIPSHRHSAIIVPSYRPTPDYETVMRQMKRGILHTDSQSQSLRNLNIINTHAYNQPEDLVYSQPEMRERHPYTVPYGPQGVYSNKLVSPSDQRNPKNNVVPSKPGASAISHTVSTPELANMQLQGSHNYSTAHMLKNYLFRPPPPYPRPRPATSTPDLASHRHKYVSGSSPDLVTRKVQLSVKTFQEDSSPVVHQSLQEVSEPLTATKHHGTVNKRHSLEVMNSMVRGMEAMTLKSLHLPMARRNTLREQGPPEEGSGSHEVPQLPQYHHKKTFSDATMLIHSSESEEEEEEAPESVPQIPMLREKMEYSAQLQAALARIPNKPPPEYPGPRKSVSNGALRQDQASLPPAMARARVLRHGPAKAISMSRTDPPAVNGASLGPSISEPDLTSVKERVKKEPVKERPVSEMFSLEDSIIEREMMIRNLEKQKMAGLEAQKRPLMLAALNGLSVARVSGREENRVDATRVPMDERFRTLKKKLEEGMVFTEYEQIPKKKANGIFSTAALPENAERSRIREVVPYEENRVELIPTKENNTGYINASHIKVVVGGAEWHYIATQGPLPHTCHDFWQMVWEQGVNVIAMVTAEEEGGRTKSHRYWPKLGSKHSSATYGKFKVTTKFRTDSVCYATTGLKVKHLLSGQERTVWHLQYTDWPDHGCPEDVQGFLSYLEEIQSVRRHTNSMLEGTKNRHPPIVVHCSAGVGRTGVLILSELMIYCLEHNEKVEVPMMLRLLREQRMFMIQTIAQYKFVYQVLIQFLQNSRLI
UniProt O95835, sequence (O95835 whole entry): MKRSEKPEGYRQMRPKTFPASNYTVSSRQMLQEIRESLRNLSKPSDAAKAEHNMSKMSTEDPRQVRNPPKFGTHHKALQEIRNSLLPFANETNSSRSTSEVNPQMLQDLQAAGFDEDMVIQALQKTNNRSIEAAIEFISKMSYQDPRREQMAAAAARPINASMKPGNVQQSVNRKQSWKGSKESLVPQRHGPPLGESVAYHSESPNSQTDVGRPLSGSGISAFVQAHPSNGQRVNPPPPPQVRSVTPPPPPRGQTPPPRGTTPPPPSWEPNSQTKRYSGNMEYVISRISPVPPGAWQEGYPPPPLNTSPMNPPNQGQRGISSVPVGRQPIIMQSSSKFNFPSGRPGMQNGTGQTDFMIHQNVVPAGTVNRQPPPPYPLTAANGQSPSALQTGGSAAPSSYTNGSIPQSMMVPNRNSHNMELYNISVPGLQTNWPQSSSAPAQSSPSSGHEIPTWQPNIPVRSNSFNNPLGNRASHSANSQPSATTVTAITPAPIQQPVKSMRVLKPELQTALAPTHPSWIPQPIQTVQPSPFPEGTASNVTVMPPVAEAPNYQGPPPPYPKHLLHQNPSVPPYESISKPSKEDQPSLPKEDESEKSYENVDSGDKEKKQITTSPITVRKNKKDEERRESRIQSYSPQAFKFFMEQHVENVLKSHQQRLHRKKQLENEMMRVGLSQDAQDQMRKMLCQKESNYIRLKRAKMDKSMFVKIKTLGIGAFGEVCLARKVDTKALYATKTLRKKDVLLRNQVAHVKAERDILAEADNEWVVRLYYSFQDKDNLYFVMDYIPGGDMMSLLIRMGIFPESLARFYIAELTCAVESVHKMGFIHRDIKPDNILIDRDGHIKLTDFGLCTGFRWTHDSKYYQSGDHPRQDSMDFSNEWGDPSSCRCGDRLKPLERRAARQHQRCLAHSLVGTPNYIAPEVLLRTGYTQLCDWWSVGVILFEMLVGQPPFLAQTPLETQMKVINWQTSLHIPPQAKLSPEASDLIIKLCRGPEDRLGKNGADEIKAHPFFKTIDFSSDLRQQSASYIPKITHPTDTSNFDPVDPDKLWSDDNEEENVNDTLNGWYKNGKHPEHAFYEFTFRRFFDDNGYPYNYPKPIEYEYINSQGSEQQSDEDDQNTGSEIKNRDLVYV

With Strep‐HA YAP1 (wild type) ΔWW1/2, the other: log2(mutant vs WT) was -7 in assay [1], -9.2 in assay [2], -7 in assay [3] and -9.2 in assay [4].

Turning to Strep‐HA YAP1 (wild type) S367A, the response (log2(Intensity)) in the assay with TP53BP2 amounted to 30; with AMOTL1, 34; with CCDC85C, 28.

Strep‐HA YAP1 (wild type) ΔWW1: the other: log2(mutant vs WT) in assay [1] is -7.2; in assay [2], -3.4; in assay [3], -7.2; in assay [4], -3.4.

Take Strep‐HA YAP1 (wild type) 5SA: the values for the other: log2(mutant vs WT) in assay [3] and in assay [4] were -0.6 and 0, respectively.

As to Strep‐HA YAP1 (wild type) ΔWW2, the other: log2(mutant vs WT) in assay [1] was -3.6; in assay [2], -7.7; in assay [3], -3.6; in assay [4], -7.7.

Values taken from paper PMC10090947.
